US20210252150A1

Tests used:
[1] = molecular target: HA of A/Hong Kong/1/1968 (H3N2) (influenza A virus (H3N2)) (UniProt Q91MA7)
[2] = molecular target: HA of A/Hong Kong/1073/99 (H9) (influenza A virus (H9))
[3] = molecular target: HA of A/Indonesia/5/2005 (H5N1) (influenza A virus (H5N1))
[4] = molecular target: HA of A/Netherlands/219/2003 (H7N7) (influenza A virus (H7N7))
[5] = molecular target: HA of A/Shanghai/2/2013 (H7N9) (influenza A virus (H7N9))
[6] = molecular target: HA of A/Singapore/1/1957 (H2) (influenza A virus (H2)) (UniProt Q67333)
[7] = molecular target: HA of A/mallard duck/Astrakhan/263/1982 (H14N5) (influenza A virus (H14N5))
[8] = molecular target: HA of A/shearwater/Western Australia/2576/1979 (H15N9) (influenza A virus (H15N9))
[9] = molecular target: HA of A/California/04/2009 (H1N1) (influenza A virus (H1N1)) (UniProt P26140); experiment: ELISA, recombinant HA
[10] = molecular target: HA of A/duck/Czechoslovakia/1956 (H4); experiment: ELISA, recombinant HA

Substance: rFluA-20 heavy chain mutant C101A (antibody)
- EC50 [1]: 0.13 µg/mL
- EC50 fold over wild-type rFluA-20 [2]: > 100 fold
- EC50 fold over wild-type rFluA-20 [3]: > 100 fold
- EC50 [4]: 0.17 µg/mL
- EC50 fold over wild-type rFluA-20 [5]: > 100 fold
- EC50 [6]: 0.44 µg/mL
- EC50 fold over wild-type rFluA-20 [7]: > 100 fold
- EC50 [8]: 0.11 µg/mL

Substance: rFluA-20 light chain mutant Y49A (antibody)
- EC50 fold over wild-type rFluA-20 [4]: > 100 fold

Substance: rFluA-20 light chain mutant Q55A (antibody)
- EC50 [4]: 0.17 µg/mL
- EC50 fold over wild-type rFluA-20 [8]: > 100 fold

Substance: rFluA-20 light chain mutant N53A (antibody)
- EC50 [2]: 0.17 µg/mL
- EC50 fold over wild-type rFluA-20 [3]: > 100 fold
- EC50 [4]: 0.05 µg/mL
- EC50 [5]: 0.87 µg/mL
- EC50 fold over wild-type rFluA-20 [7]: > 100 fold
- EC50 [8]: 0.06 µg/mL

Substance: CR6261 (antibody)
- EC50 [9]: 0.012 µg/mL
- EC50 [10]: 0.023 µg/mL
